Results on 140 substances are retold here after the supplement of paper PMC12042874.

± gives the uncertainty stated by the source.

The series in a line: amyloid nucleation score (Sup35N fusion, yeast selection) (log enrichment); library NNK2; higher = more nucleation; inactive = no reads after selection. Put shortly: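 Output and input plasmid inserts were sequenced by Illumina after psi-negative yeast carrying Sup35N fused to peptides of 20 random codons had been induced 24 hours with 100 μM copper sulfate and grown 7 days at 30°C on medium lacking adenine and uracil. The nucleation score is the DiMSum log enrichment of output over input reads, centred on the mode score of non-aggregating sequences. Sequences with under 100 input reads were excluded.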

In the case of GHVCKFHTLHWR, the amyloid nucleation score was -1.17 ± 0.61.

The substance LLSWVHR had an amyloid nucleation score of -0.357 ± 0.5.

Substance GKSYPPHLHHDNNKAYRVLP yielded an amyloid nucleation score of -0.178 ± 1.1.

Take DTPITDCELPAYFQVITNWL: the amyloid nucleation score is 0.007 ± 0.76.

Substance MMSGCGFSLKACLKEWRGGL registered an amyloid nucleation score of 7.572 ± 0.036.

In turn, NSESYRCERY gave an amyloid nucleation score of -0.567 ± 0.49.

In the case of YIRLHYGGVRRKVFTTILVI, the amyloid nucleation score is -0.26 ± 0.45.

GRIVRSVLSSIVCILMSYWM registered an amyloid nucleation score of 0.821 ± 0.31.

As to PLYLYA, the amyloid nucleation score was found to be 4.28 ± 0.078.

On to LCAWDWSGTRVR, for which the amyloid nucleation score came to 0.903 ± 0.67.

In the case of VPRLILSIYFIICLTTQEAV, the amyloid nucleation score is -0.24 ± 0.65.

Take DAGDVRQVKEAGLMAGS: the amyloid nucleation score worked out at 0.527 ± 0.21.

In turn, ERGSGASMFVDGGRYRSRPM returned an amyloid nucleation score of -0.159 ± 1.

On to KPLNVHELIVSYEYYLLFCQ, for which the amyloid nucleation score entry is “inactive”.

Turning to DRGTGNRGSCDRSYLDSGKV, the amyloid nucleation score was 0.963 ± 0.29.

In the case of GGEIESIGFRLGCLSRRSES, the amyloid nucleation score was -0.383 ± 0.49.

With IVQRLPVFKFLMYELCLLNG, the amyloid nucleation score was -0.894 ± 0.38.

The substance GLVVTSNPSDMSVMELCLWF registered an amyloid nucleation score of -0.347 ± 0.3.

With DKGWLANDNLDKDLHQIPYA, the amyloid nucleation score was 0.515 ± 0.35.

The substance TFFYCGPRKLFYKI yielded an amyloid nucleation score of -0.387 ± 1.1.

As to YANDELLGAGGADS, the amyloid nucleation score is 0.652 ± 0.35.

In turn, YRHYIGRTSFTLY showed an amyloid nucleation score of -0.232 ± 1.1.

LYNRRPFPYGYGTGLCPQRI came in with an amyloid nucleation score of -0.047 ± 0.79.

With RCNRSCN, the amyloid nucleation score result was “inactive”.

Regarding HKDSKTGSIYHQWMDQREIE, the amyloid nucleation score is -1.1 ± 0.48.

Take VHPGTR: the amyloid nucleation score turned out to be 4.08 ± 0.065.

On to KGVRVQDTNVGIWAGKWGVV, for which the amyloid nucleation score came to 0.883 ± 0.29.

On to KQENMPDSAVVYCRRWGSDM, for which the amyloid nucleation score was 0.057 ± 0.76.

DRVCGLPNVHSCVCYFAGRN showed an amyloid nucleation score of 5.47 ± 0.076.

In the case of ERRTCTRLPNVSRARIR, the amyloid nucleation score is 1.27 ± 0.21.

VYWWVANV came in with an amyloid nucleation score of 1.99 ± 0.26.

SFVIIVLDDLCSCAN gave an amyloid nucleation score of 1.62 ± 0.13.

In the case of LLSSSTIIHLRMCMIHGSFW, the amyloid nucleation score was determined as 0.791 ± 0.67.

RWYILILGFRGKIIYPFRLG displayed an amyloid nucleation score of 0.157 ± 1.

Substance FQDVDVLGSWPG registered an amyloid nucleation score of 0.387 ± 0.53.

Regarding KFLGYQLPPRDSSSGTF, the amyloid nucleation score was determined as 0.066 ± 0.27.

In the case of SKCIRLPFFTLLLTNMFHVA, the amyloid nucleation score result is “inactive”.

Take FSLSQ: the amyloid nucleation score turned out to be 3.55 ± 0.11.

LRLTYSWSYSCLLITNQRQN: the amyloid nucleation score is -0.009 ± 0.65.

Substance YTLCTMKLREWNRTSTWPSL showed an amyloid nucleation score of -0.003 ± 0.39.

Turning to LVVIYMTRVGASTKLRVSVL, the amyloid nucleation score entry was “inactive”.

Substance SSIGYVDYAEFEAGFFIYIV came in with an amyloid nucleation score of -0.823 ± 0.44.

Substance VWSSMSFTSLFVIISLSNYS registered an amyloid nucleation score of 2.88 ± 0.13.

In the case of ITFYGTF, the amyloid nucleation score result is “inactive”.

Take MASITDDRADLHH: the amyloid nucleation score entry is “inactive”.

On to PMVDRMMDASRWLPLDY, for which the amyloid nucleation score stood at 0.109 ± 0.45.

TYRIQRIFLPLYRWLVLLLS displayed an amyloid nucleation score of -0.285 ± 0.76.

SLVNATGRWINVVTNFRLNG registered an amyloid nucleation score of 7.565 ± 0.049.

On to LNYALLVEFCLCLNPDNNSS, for which the amyloid nucleation score was 8.57 ± 0.055.

DRIYNVGRSRTGRSLFYSPV gave an amyloid nucleation score of -1.19 ± 0.38.

The substance TVELLGILAHCSFCS registered an amyloid nucleation score of 8.247 ± 0.054.

In turn, YFRWGLSSKASLWHVRWALG showed an amyloid nucleation score of 0.409 ± 0.8.

For the substance ANDPCGVKASRLYVLVSPRV, the amyloid nucleation score turned out to be 0.707 ± 0.19.

For RASVYCFLEHG, the amyloid nucleation score was determined as 3.42 ± 0.049.

In turn, LWVFLLAWSAQLYDWSMATR came in with an amyloid nucleation score of -0.12 ± 0.79.

Consider HSCRTYI, for which the amyloid nucleation score result is “inactive”.

Substance HPFSSRSS yielded an amyloid nucleation score of -0.018 ± 1.1.

The substance YGSQISLTKEARQEKDTSGS gave an amyloid nucleation score of -0.815 ± 0.34.

As to CKLWECTLLVGWGNLLRVRG, the amyloid nucleation score is -0.276 ± 0.76.

YANMGYQGLIRGIGVLDWIK came in with an amyloid nucleation score of -0.119 ± 0.36.

Take RSKVYTWR: the amyloid nucleation score stood at 3.23 ± 0.071.

On to GVCNYPPCPGMMKGKTSLGN, for which the amyloid nucleation score came to 1.32 ± 0.26.

The substance LLLINLLFSASKLALSM returned an amyloid nucleation score of -0.679 ± 1.1.

LSNEAWFGQGMLDGWGGGEG had an amyloid nucleation score of 0.514 ± 0.56.

The substance VECIRSVLVFFVFWLRSIFA gave an amyloid nucleation score of -1.38 ± 0.55.

As to TELVWLPWTRFCFGRNYRG, the amyloid nucleation score turned out to be 0.101 ± 0.35.

YFRHVVAGHLRCCLLVSARD: the amyloid nucleation score amounted to 2.7 ± 0.13.

Consider IIRITESASRCNTDQLFLLW, for which the amyloid nucleation score result is “inactive”.

Turning to ALLTVFFNLVVVWDVKAVTP, the amyloid nucleation score was -0.159 ± 1.

In turn, KLFIRWVAWY returned an amyloid nucleation score of 0.113 ± 0.8.

Substance QTNST had an amyloid nucleation score of 0.526 ± 0.57.

RTMLSGLLGYRSRSLADSPF: the amyloid nucleation score was -0.199 ± 0.76.

Consider GDDLPWWCISIWFFLSWLEN, for which the amyloid nucleation score result is “inactive”.

Substance ANKLLESCFSQCLRSALFEW showed an amyloid nucleation score of -0.369 ± 0.79.

As for LWKLYLTVSRNLAVGISGGL, the amyloid nucleation score entry is “inactive”.

As to YSQFITGFGNNRHLTLSLAG, the amyloid nucleation score was 0.389 ± 0.5.

Regarding MKPSGFRGILGTELRMKGWT, the amyloid nucleation score is 0.74 ± 0.57.

Turning to YTSWDMYIEFIMSLQMYSVG, the amyloid nucleation score was -0.729 ± 1.1.

Turning to FSFKPRTRSAGG, the amyloid nucleation score was -0.11 ± 0.5.

Turning to GKVGNNTLSVYGMDTT, the amyloid nucleation score result was “inactive”.

Consider SRLVFS, for which the amyloid nucleation score entry was “inactive”.

PSVGYSITWGNILLYRIGFR yielded an amyloid nucleation score of -1.19 ± 1.

Substance ATYFWMQSVP came in with an amyloid nucleation score of 0.903 ± 0.74.

Consider NRRNLSVGYSKVHS, for which the amyloid nucleation score amounted to 0.443 ± 0.3.

MICDLMAVVNVQSKWRYSDK registered an amyloid nucleation score of 5.052 ± 0.038.

The substance SLLGV had an amyloid nucleation score of -1.3 ± 0.34.

KTYEMTDQVIRKPYPL had an amyloid nucleation score of 0.347 ± 0.25.

PFVGSSGTWP registered an amyloid nucleation score of 1.5 ± 0.12.

In the case of NFLLSL, the amyloid nucleation score amounted to 0.322 ± 0.47.

Substance ANERCGTLTMRSEAYHVRTW came in with an amyloid nucleation score of 0.808 ± 0.28.

As for LIYVDFHGIQVVCLYLCVHC, the amyloid nucleation score entry is “inactive”.

The substance LVWTD came in with an amyloid nucleation score of -0.018 ± 1.1.

With RWIYLGYSLCLDVLLYCIEL, the amyloid nucleation score was 4.07 ± 0.06.

LIFYGSCIFQRFRIGVLSSG: the amyloid nucleation score was -0.09 ± 0.65.

With LRHWCE, the amyloid nucleation score is 0.218 ± 0.18.

In turn, LVQLKRCQMSLWMRHYHRDE yielded an amyloid nucleation score of 5.951 ± 0.055.

Regarding VYMKFMGMMQHFIKLKSRDL, the amyloid nucleation score result was “inactive”.

On to LLLFVILCNSNWLCWPR, for which the amyloid nucleation score result was “inactive”.

Substance TSFQVFINYVSL gave an amyloid nucleation score of 7.605 ± 0.046.

Consider CISMDLIVLNSFMGKPLPPP, for which the amyloid nucleation score amounted to 5.39 ± 0.057.

The substance DGVCYSRVNYIPISMHVVYR returned an amyloid nucleation score of 4.87 ± 0.08.

On to RLGYILNFELNYLII, for which the amyloid nucleation score was 0.856 ± 0.17.

The substance FIKRSAGNREANYNVTKENA displayed an amyloid nucleation score of 0.816 ± 0.74.

For the substance TPPTHWSFFMIWARCEKLGG, the amyloid nucleation score was -1.01 ± 0.64.

For NVVTG, the amyloid nucleation score is -0.11 ± 0.42.

For the substance LMILRRVVKEPESANKFCGY, the amyloid nucleation score result was “inactive”.

ALHFPVIQHFW displayed an amyloid nucleation score of 5.22 ± 0.073.

The substance YMLRIRTMSVPVFPVGFLGL showed an amyloid nucleation score of -0.275 ± 0.56.

As for HVYAVRSLLYGGWGRH, the amyloid nucleation score came out at 4.46 ± 0.051.

As for HFTTLGILLRCRGLSVLPKV, the amyloid nucleation score is -0.329 ± 0.39.

NEIASEYSYRPLLRGWSS: the amyloid nucleation score was -0.119 ± 0.4.

In the case of RFDSWVAWGFG, the amyloid nucleation score stood at 1.74 ± 0.15.

As for FYGFL, the amyloid nucleation score result was “inactive”.

Regarding GRRHVNFCSRTDYRAGPHRY, the amyloid nucleation score came to 0.112 ± 1.1.

As to QLVLQVNRYVYRIMSTLTLS, the amyloid nucleation score came out at 0.848 ± 0.52.

LILRGDS gave an amyloid nucleation score of -0.913 ± 0.4.

Regarding WGHRVDCIFKSNLSA, the amyloid nucleation score is -0.878 ± 0.31.

For FLGSVSVLLDKSSSGVNSKR, the amyloid nucleation score was -0.284 ± 1.1.

The substance YDGANWRSKGWLDLFSIMKQ displayed an amyloid nucleation score of -1.23 ± 0.75.

On to STATHSWGCFSWNSCFHGRQ, for which the amyloid nucleation score is 9.493 ± 0.05.

Turning to SSTAVSQILH, the amyloid nucleation score result was “inactive”.

Substance VHYQLKSIRMDSM gave an amyloid nucleation score of 0.484 ± 0.19.

LTHIKDRVELLLGGQFISDT showed an amyloid nucleation score of 0.011 ± 1.1.

The substance GLPSILVYL showed an amyloid nucleation score of -1.31 ± 0.78.

In turn, RVYSLNSRWYSLPG yielded an amyloid nucleation score of 0.016 ± 0.76.

Consider SISSVLCYWYKNHKNDIVSG, for which the amyloid nucleation score result is “inactive”.

YLRYLWSRQPCSAGSQVACR gave an amyloid nucleation score of -0.145 ± 1.1.

Regarding FWVKKLYLGIGSHVWNMGFN, the amyloid nucleation score entry is “inactive”.

The substance FWLAWLAVRTNHFLAKITD came in with an amyloid nucleation score of -0.267 ± 0.28.

On to WLIMT, for which the amyloid nucleation score result was “inactive”.

In turn, RENVVSGHDRNECAGLMSRG came in with an amyloid nucleation score of 0.343 ± 0.27.

CREEDGLLDVSYKRSDMGGS showed an amyloid nucleation score of -0.267 ± 0.65.

For RRVPEKGLLGLYSGGLIAEV, the amyloid nucleation score is -0.299 ± 0.74.

Substance FCKDLMFC registered an amyloid nucleation score of 0.378 ± 0.36.

SLKPSLLSDKNE came in with an amyloid nucleation score of -1.39 ± 0.36.

For CGKLSLLNQVWIVSQPMPGQ, the amyloid nucleation score was 7.57 ± 0.064.

FFIIMRYRLRDFTFVYSSPV: the amyloid nucleation score is -0.627 ± 0.31.

The substance SYYQCCSG returned an amyloid nucleation score of 3.15 ± 0.14.

Consider NIARNFRYRM, for which the amyloid nucleation score is -1.86 ± 1.1.

With FIMEAFFEPFNKGYRYRMMS, the amyloid nucleation score amounted to 0.833 ± 0.18.
